{
  "source": "IntAct's records for PubMed 10364224",
  "parents": {"B1": {"name": "Tyrosine-protein phosphatase non-receptor type 3 (Homo sapiens), P26045 (parent)", "chain": "MTSRLRALGGRINNIRTSELPKEKTRSEVICSIHFLDGVVQTFKVTKQDTGQVLLDMVHNHLGVTEKEYFGLQHDDDSVDSPRWLEASKAIRKQLKGGFPCTLHFRVRFFIPDPNTLQQEQTRHLYFLQLKMDICEGRLTCPLNSAVVLASYAVQSHFGDYNSSIHHPGYLSDSHFIPDQNEDFLTKVESLHEQHSGLKQSEAESCYINIARTLDFYGVELHSGRDLHNLDLMIGIASAGVAVYRKYICTSFYPWVNILKISFKRKKFFIHQRQKQAESREHIVAFNMLNYRSCKNLWKSCVEHHTFFQAKKLLPQEKNVLSQYWTMGSRNTKKSVNNQYCKKVIGGMVWNPAMRRSLSVEHLETKSLPSRSPPITPNWRSPRLRHEIRKPRHSSADNLANEMTYITETEDVFYTYKGSLAPQDSDSEVSQNRSPHQESLSENNPAQSYLTQKSSSSVSPSSNAPGSCSPDGVDQQLLDDFHRVTKGGSTEDASQYYCDKNDNGDSYLVLIRITPDEDGKFGFNLKGGVDQKMPLVVSRINPESPADTCIPKLNEGDQIVLINGRDISEHTHDQVVMFIKASRESHSRELALVIRRRAVRSFADFKSEDELNQLFPEAIFPMCPEGGDTLEGSMAQLKKGLESGTVLIQFEQLYRKKPGLAITFAKLPQNLDKNRYKDVLPYDTTRVLLQGNEDYINASYVNMEIPAANLVNKYIATQGPLPHTCAQFWQVVWDQKLSLIVMLTTLTERGRTKCHQYWPDPPDVMNHGGFHIQCQSEDCTIAYVSREMLVTNTQTGEEHTVTHLQYVAWPDHGVPDDSSDFLEFVNYVRSLRVDSEPVLVHCSAGIGRTGVLVTMETAMCLTERNLPIYPLDIVRKMRDQRAMMVQTSSQYKFVCEAILRVYEEGLVQMLDPS"}},
  "data": [
    {"variants_of": "B1", "details": "with tera_human VCP", "values": [
      {"variant": "Y676F;D811A", "effect of a mutation on the interaction": "increasing interaction"}
    ]},
    {"variants_of": "B1", "details": "with tera_mouse Vcp", "values": [
      {"variant": "Y676F;D811A", "effect of a mutation on the interaction": "increasing interaction"}
    ]},
    {"variants_of": "B1", "details": "with tera_human VCP", "remark": "another data set of the same source", "values": [
      {"variant": "D811A", "effect of a mutation on the interaction": "increasing interaction"}
    ]}
  ]
}
